Assay [1] concerns the target CofB (minor pilin of CFA/III without its N-terminal 28 residues; homotrimer) (enterotoxigenic Escherichia coli (ETEC)). In words: ITC.
For assay [2] the target is unchanged. Briefly: AUC.

From paper PMC6048534 come the findings set out here.

Broadly, the Kd is the concentration at which binding is half-saturated. Read a high Kd as weaker binding. Turning to “CofJ (4–16) peptide (synthetic 13-residue peptide comprising CofJ residues 4–16)”, the Kd in assay [1] stood at 4.8 µM. This lies in the single-digit micromolar range.

Broadly, the stoichiometry N is a count of units in the complex or per binding partner. In assay [2], “CofB (minor pilin of CFA/III without its N-terminal 28 residues; homotrimer) (domain or fragment)” returned a stoichiometry N of 3.

In assay [1], “CofJ (intact recombinant secreted protein of the CFA/III operon) (natural protein)” gave a Kd of 0.14 µM. Besides, in assay [2], the stoichiometry N (CofJ per three CofB molecules) is 1.

Take “CofJ (1–24) peptide (synthesized peptide consisting of CofJ residues 1–24)”: in assay [1], the Kd turned out to be 8.8 µM.
